Test results as given in patent US20260071002A1 (Hoffmann-La Roche, published 2026).

T1: human CEACAM5 (human, UniProt P06731 35-685)
T1 construct: whole, on cells; Target on MKN-45 (DSMZ ACC409) and LS180 (ATCC CL-187) cells; also called carcinoembryonic antigen-related cell adhesion molecule 5; CD66e
T1 sequence (looked up): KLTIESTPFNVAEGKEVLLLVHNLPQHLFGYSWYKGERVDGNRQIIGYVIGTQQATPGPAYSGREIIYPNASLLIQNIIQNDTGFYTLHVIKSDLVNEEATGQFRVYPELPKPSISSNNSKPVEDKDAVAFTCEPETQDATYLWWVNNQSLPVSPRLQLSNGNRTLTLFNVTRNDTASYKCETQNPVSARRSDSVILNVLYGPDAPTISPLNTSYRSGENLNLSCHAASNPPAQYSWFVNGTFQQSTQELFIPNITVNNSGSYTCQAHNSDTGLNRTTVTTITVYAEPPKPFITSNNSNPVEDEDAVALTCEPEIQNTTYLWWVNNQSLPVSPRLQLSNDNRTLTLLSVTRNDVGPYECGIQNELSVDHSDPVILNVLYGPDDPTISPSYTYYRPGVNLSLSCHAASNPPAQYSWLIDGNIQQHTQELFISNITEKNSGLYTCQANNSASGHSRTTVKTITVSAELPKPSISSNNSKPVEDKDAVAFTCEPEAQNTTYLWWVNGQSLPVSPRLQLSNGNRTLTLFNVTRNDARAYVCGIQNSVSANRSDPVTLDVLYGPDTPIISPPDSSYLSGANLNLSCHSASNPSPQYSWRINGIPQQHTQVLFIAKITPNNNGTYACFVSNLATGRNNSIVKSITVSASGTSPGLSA


biological target: T1, human CEACAM5; experiment: FACS on MKN-45 cells expressing human CEACAM5
Method: The cellular binding assay was performed as follows.
(§1) 10 μl of a 1×10⁴ MKN-45 (DSMZ ACC409) cell suspension in assay buffer was seeded in all Wells of a 384 well polypropylene plate (Weidmann #23490-101). Then 10 μl of antibodies diluted in assay buffer (double concentrated), at a start concentration of 100 μg/ml, serially diluted 1:4 were added to the plate. After 90 minutes incubation at 4° C., 60 μl assay buffer was added followed by a centrifuge step (330×g, 5 min) and an aspirating step (BioTek washer 405H) where 60 μl of supernatant were discarded. 20 μl of detection antibody (Alpaca anti rabbit IgG Chromotek #srbAF647-1) diluted in assay buffer (double concentrated) to a final concentration of 0.5 μg/ml was added to all Wells followed by 1 hour incubation time at room temperature. The cells were then subjected to two washing steps with 40 μl and 60 μl assay buffer as described above and then resuspended in 20 μl assay buffer. Cell binding was measured on an iQue Screener Plus high throughput FACS device from Sartorius/Intellicyt.

EC50	Binder
30.1 nM	P1AH2350 (antibody, name in Kabat numbering, V domains shown) VH: QVQLVQSGAEVKKPGSSVKVSCKASGFNIKDTYMHWVRQAPGQGLEWMGRIDPANGNSKYVPKFQGRVTITADTSTSTAYMELSSLRSEDTAVYYCAVFGYYVSDYAMAYWGQGTLVTVSS VL: EIVLTQSPATLSLSPGERATLSCRAGESVDIFGVGFLHWYQQKPGQAPRLLIYRASNRATGIPARFSGSGSGTDFTLTISSLEPEDFAVYYCQQTNEDPYTFGQGTKLEIK
21.9 nM	P1AH2352 (antibody, human IgG1, name in Kabat numbering, V domains shown, Kabat positions) VH: QVQLVQSGAEVKKPGSSVKVSCKASGFNIKDTYMHWVRQAPGQGLEWMGRIDPANGNSKYVPKFQGRVTITADTSTSTAYMELSSLRSEDTAVYYCATFGYYVSDYAMAYWGQGTLVTVSS VL: EIVLTQSPATLSLSPGERATLSCRAGESVDIFGVGFLHWYQQKPGQAPRLLIYRASNRATGIPARFSGSGSGTDFTLTISSLEPEDFAVYYCQQTNEDPYTFGQGTKLEIK
2.3 nM	P1AH2357 (antibody, name in Kabat numbering, V domains shown) VH: QVQLVQSGAEVKKPGSSVKVSCKASGFNIKSTYMHWVRQAPGQGLEWMGRIDPANGNSKYVPKFQGRVTITADTSTSTAYMELSSLRSEDTAVYYCAPFGYYVSDYAMAYWGQGTLVTVSS VL: EIVLTQSPATLSLSPGERATLSCRAGESVDIFGVGFLHWYQQKPGQAPRLLIYRASNRATGIPARFSGSGSGTDFTLTISSLEPEDFAVYYCQQTNEDPYTFGQGTKLEIK
20.4 nM	P1AH2354 (antibody, human IgG1, name in Kabat numbering, V domains shown, Kabat positions) VH: QVQLVQSGAEVKKPGSSVKVSCKASGFNIKDTYMHWVRQAPGQGLEWMGRIDPANGNSKYVPKFQGRVTITADTSTSTAYMELSSLRSEDTAVYYCASFGYYVSDYAMAYWGQGTLVTVSS VL: EIVLTQSPATLSLSPGERATLSCRAGESVDIFGVGFLHWYQQKPGQAPRLLIYRASNRATGIPARFSGSGSGTDFTLTISSLEPEDFAVYYCQQTNEDPYTFGQGTKLEIK
39.1 nM	P1AH2351 (antibody, human IgG1, name in Kabat numbering, V domains shown, Kabat positions) VH: QVQLVQSGAEVKKPGSSVKVSCKASGFNIKDTYMHWVRQAPGQGLEWMGRIDPANGNSKYVPKFQGRVTITADTSTSTAYMELSSLRSEDTAVYYCAAFGYYVSDYAMAYWGQGTLVTVSS VL: EIVLTQSPATLSLSPGERATLSCRAGESVDIFGVGFLHWYQQKPGQAPRLLIYRASNRATGIPARFSGSGSGTDFTLTISSLEPEDFAVYYCQQTNEDPYTFGQGTKLEIK

biological target: T1, human CEACAM5; experiment: FACS on MKN-45 cells expressing human CEACAM5; remark: another data set of the same source
Method: as §1

Binder	EC50
P1AI5027 (antibody, human IgG1, name in Kabat numbering, V domains shown) VH: EVQLVESGGGLVQPGGSLRLSCAASGFNIKDTYMHWVRQAPGKGLEWVGRIDPANGNSKYADSVKGRFTISADTSKNTAYLQMNSLRAEDTAVYYCAPFGYYVSDYAMAYWGQGTTVTVSS VL: EIVLTQSPATLSLSPGERATLSCRAGESVDIFGVGFLHWYQQKPGQAPRLLIYRGSNRATGIPARFSGSGSGTDFTLTISSLEPEDFAVYYCGQTQEDPYTFGQGTKLEIK	25.1 µg/mL
P1AI5026 (antibody, human IgG1, name in Kabat numbering, V domains shown) VH: EVQLVESGGGLVQPGGSLRLSCAASGFNIKDTYMHWVRQAPGKGLEWVGRIDPANGNSKYADSVKGRFTISADTSKNTAYLQMNSLRAEDTAVYYCAPFGYYVSDYAMAYWGQGTTVTVSS VL: EIVLTQSPATLSLSPGERATLSCRAGESVDIFGVGFLHWYQQKPGQAPRLLIYRGSNRATGIPARFSGSGSGTDFTLTISSLEPEDFAVYYCGQTTEDPYTFGQGTKLEIK	1.83 µg/mL
P1AI5025 (antibody, human IgG1, name in Kabat numbering, V domains shown) VH: EVQLVESGGGLVQPGGSLRLSCAASGFNIKDTYMHWVRQAPGKGLEWVGRIDPANGNSKYADSVKGRFTISADTSKNTAYLQMNSLRAEDTAVYYCAPFGYYVSDYAMAYWGQGTTVTVSS VL: EIVLTQSPATLSLSPGERATLSCRAGESVDIFGVGFLHWYQQKPGQAPRLLIYRGSNRATGIPARFSGSGSGTDFTLTISSLEPEDFAVYYCGQTSEDPYTFGQGTKLEIK	2.44 µg/mL
P1AI5029 (antibody, human IgG1, name in Kabat numbering, V domains shown) VH: EVQLVESGGGLVQPGGSLRLSCAASGFNIKDTYMHWVRQAPGKGLEWVGRIDPANGNSKYADSVKGRFTISADTSKNTAYLQMNSLRAEDTAVYYCAPFGYYVSDYAMAYWGQGTTVTVSS VL: EIVLTQSPATLSLSPGERATLSCRAGESVDIFGVGFLHWYQQKPGQAPRLLIYRGSNRATGIPARFSGSGSGTDFTLTISSLEPEDFAVYYCGQTKEDPYTFGQGTKLEIK	1.92 µg/mL
P1AI5024 (antibody, human IgG1, name in Kabat numbering, V domains shown) VH: EVQLVESGGGLVQPGGSLRLSCAASGFNIKDTYMHWVRQAPGKGLEWVGRIDPANGNSKYADSVKGRFTISADTSKNTAYLQMNSLRAEDTAVYYCAPFGYYVSDYAMAYWGQGTTVTVSS VL: EIVLTQSPATLSLSPGERATLSCRAGESVDIFGVGFLHWYQQKPGQAPRLLIYRGSNRATGIPARFSGSGSGTDFTLTISSLEPEDFAVYYCGQTYEDPYTFGQGTKLEIK	11.5 µg/mL
P1AI5019 (antibody, human IgG1, name in Kabat numbering, V domains shown) VH: EVQLVESGGGLVQPGGSLRLSCAASGFNIKDTYMHWVRQAPGKGLEWVGRIDPANGNSKYADSVKGRFTISADTSKNTAYLQMNSLRAEDTAVYYCAPFGYYVSDYAMAYWGQGTTVTVSS VL: EIVLTQSPATLSLSPGERATLSCRAGESVDIFGVGFLHWYQQKPGQAPRLLIYRGSNRATGIPARFSGSGSGTDFTLTISSLEPEDFAVYYCGQTNEDYYTFGQGTKLEIK	2.49 µg/mL

The next lines start with the values.

EC50	Binder
7.51 µg/mL	P1AI5028 (antibody, human IgG1, name in Kabat numbering, V domains shown) VH: EVQLVESGGGLVQPGGSLRLSCAASGFNIKDTYMHWVRQAPGKGLEWVGRIDPANGNSKYADSVKGRFTISADTSKNTAYLQMNSLRAEDTAVYYCAPFGYYVSDYAMAYWGQGTTVTVSS VL: EIVLTQSPATLSLSPGERATLSCRAGESVDIFGVGFLHWYQQKPGQAPRLLIYRGSNRATGIPARFSGSGSGTDFTLTISSLEPEDFAVYYCGQTHEDPYTFGQGTKLEIK
0.685 µg/mL	P1AI5013 (antibody, human IgG1, V domains shown) VH: EVQLVESGGGLVQPGGSLRLSCAASGFNIKDTYMHWVRQAPGKGLEWVGRIDPANGNSKYADSVKGRFTISADTSKNTAYLQMNSLRAEDTAVYYCAPFGYYVSDYAMAYWGQGTTVTVSS VL: EIVLTQSPATLSLSPGERATLSCRAGESVDHFGVGFLHWYQQKPGQAPRLLIYRASNRATGIPARFSGSGSGTDFTLTISSLEPEDFAVYYCQQTNEDPYTFGQGTKLEIK
1.53 µg/mL	P1AI5032 (antibody, human IgG1, name in Kabat numbering, V domains shown, Double mutant of T84.66-LCHA VL) VH: EVQLVESGGGLVQPGGSLRLSCAASGFNIKDTYMHWVRQAPGKGLEWVGRIDPANGNSKYADSVKGRFTISADTSKNTAYLQMNSLRAEDTAVYYCAPFGYYVSDYAMAYWGQGTTVTVSS VL: EIVLTQSPATLSLSPGERATLSCRAGESVDHFGVGFLHWYQQKPGQAPRLLIYRGSNRATGIPARFSGSGSGTDFTLTISSLEPEDFAVYYCQQTNEDPYTFGQGTKLEIK
11.2 µg/mL	P1AI5030 (antibody, human IgG1, name in Kabat numbering, V domains shown) VH: EVQLVESGGGLVQPGGSLRLSCAASGFNIKDTYMHWVRQAPGKGLEWVGRIDPANGNSKYADSVKGRFTISADTSKNTAYLQMNSLRAEDTAVYYCAPFGYYVSDYAMAYWGQGTTVTVSS VL: EIVLTQSPATLSLSPGERATLSCRAGESVDIFGVGFLHWYQQKPGQAPRLLIYRGSNRATGIPARFSGSGSGTDFTLTISSLEPEDFAYYYCGQTNEDPYTFGQGTKLEIK
7.21 µg/mL	P1AI5023 (antibody, human IgG1, name in Kabat numbering, V domains shown) VH: EVQLVESGGGLVQPGGSLRLSCAASGFNIKDTYMHWVRQAPGKGLEWVGRIDPANGNSKYADSVKGRFTISADTSKNTAYLQMNSLRAEDTAVYYCAPFGYYVSDYAMAYWGQGTTVTVSS VL: EIVLTQSPATLSLSPGERATLSCRAGESVDIFGVGFLHWYQQKPGQAPRLLIYRGSNRATGIPARFSGSGSGTDFTLTISSLEPEDFAVYYCGQTNEHPYTFGQGTKLEIK
1.62 µg/mL	P1AI5021 (antibody, human IgG1, name in Kabat numbering, V domains shown) VH: EVQLVESGGGLVQPGGSLRLSCAASGFNIKDTYMHWVRQAPGKGLEWVGRIDPANGNSKYADSVKGRFTISADTSKNTAYLQMNSLRAEDTAVYYCAPFGYYVSDYAMAYWGQGTTVTVSS VL: EIVLTQSPATLSLSPGERATLSCRAGESVDIFGVGFLHWYQQKPGQAPRLLIYRGSNRATGIPARFSGSGSGTDFTLTISSLEPEDFAVYYCGQTNEPPYTFGQGTKLEIK
